The labels stand for the following.
B1: Ankyrin-2, residues 3571 to 3650; numbered along this chain, Q01484 (parent)
chain: ERLAYIADHLGFSWTELARELDFTEEQIHQIRIENPNSLQDQSHALLKYWLERDGKHATDTNLVECLTKINRMDIVHLME

± gives the uncertainty stated by the source.

The variants in the data set derive from B1. In words: abundance fitness (aPCA) (normalised: wild type 0, dead -1); higher = more abundant; growth selection in yeast, the domain comes from the species named. The conditions noted are these: Homo sapiens.
Consider ERLAYIADHLGFSWTELARELDFTIEQIHQIRIENPNSLQDQSHALLKYWLERDGKHATDTNLVECLTKINRMDIVHLME [E25I], for which the abundance fitness is 0.009 ± 0.22.

On to ERLAYIADHLGFSWTELARELDFTEEQIHQIRIENPNSLQDQSHALLKYWLERLGKHATDTNLVECLTKINRMDIVHLME [D54L], for which the abundance fitness was -0.035 ± 0.058.

Regarding ERLAYIADHLGFSWTELARELDFTEEQIHQIRIENPNSLQDQSHALLKYWLERPGKHATDTNLVECLTKINRMDIVHLME [D54P], the abundance fitness is -0.144 ± 0.058.

Turning to ERLAYIADHLGFSWTELARELDFTEEQIHQIRIANPNSLQDQSHALLKYWLERDGKHATDTNLVECLTKINRMDIVHLME [E34A], the abundance fitness was -0.048 ± 0.063.

Regarding ERLAYIADHLGFSWTELARELDFTEEQIHQIRIRNPNSLQDQSHALLKYWLERDGKHATDTNLVECLTKINRMDIVHLME [E34R], the abundance fitness came to 0.018 ± 0.047.

As to ERLAYIADHLGFSWTELARELDFTEEQTHQIRIENPNSLQDQSHALLKYWLERDGKHATDTNLVECLTKINRMDIVHLME [I28T], the abundance fitness was -0.1 ± 0.12.

As to ERLAYIADHLGFSWTELARELDFTEEQRHQIRIENPNSLQDQSHALLKYWLERDGKHATDTNLVECLTKINRMDIVHLME [I28R], the abundance fitness is -0.22 ± 0.056.

On to ERLAYIADHLGFSWTELARELDFTEEQIHQIRIENPNSLQDQSHALLKYWLRRDGKHATDTNLVECLTKINRMDIVHLME [E52R], for which the abundance fitness was -0.045 ± 0.088.

Regarding ERLAYIADHLGFSWTELARELDFTEEQIHQIRIENPNSLQDRSHALLKYWLERDGKHATDTNLVECLTKINRMDIVHLME [Q42R], the abundance fitness was -0.12 ± 0.12.

Consider ERLAYIADHLGFSWTELARELDFTEEQIHQIRIENPNSLQDSSHALLKYWLERDGKHATDTNLVECLTKINRMDIVHLME [Q42S], for which the abundance fitness came out at 0.073 ± 0.13.

Turning to ERLAYIADHLGFSWTELARELDFTEEQIHQIRIENPNSLQDQSHALLKYWLERDGKHATDRNLVECLTKINRMDIVHLME [T61R], the abundance fitness was -0.118 ± 0.084.

In the case of ERLAYIADHLGFSWTELARELDFTEEQIHQIRIENPNSLQDQSHALLKYWLERDGKHATDGNLVECLTKINRMDIVHLME [T61G], the abundance fitness was -0.011 ± 0.079.

As to ERLAYIADHLGFSWTELARELDFTEEQIHQIRIENPNSLQDQSHALLKYWLERDGKHATDTNLVECLTKRNRMDIVHLME [I70R], the abundance fitness is -0.551 ± 0.064.

For the variant ERLAYIADHLGFSWTELARELDFTEEQIHQIRIENPNSLQRQSHALLKYWLERDGKHATDTNLVECLTKINRMDIVHLME [D41R], the abundance fitness is -0.058 ± 0.05.

As for ERLAYIADHLGFSWTELARELDFTEEQIHQIRIENPNSKQDQSHALLKYWLERDGKHATDTNLVECLTKINRMDIVHLME [L39K], the abundance fitness is -0.087 ± 0.13.

As to ERLAYIADHLGFSWTEPARELDFTEEQIHQIRIENPNSLQDQSHALLKYWLERDGKHATDTNLVECLTKINRMDIVHLME [L17P], the abundance fitness was -1.17 ± 0.2.

On to ERLAYIADHLGFSWTELARELDFTEEQIHQIRWENPNSLQDQSHALLKYWLERDGKHATDTNLVECLTKINRMDIVHLME [I33W], for which the abundance fitness is -0.073 ± 0.098.

Consider ERLAYIADHLGFSWTELARELDFTEEQIHQIRTENPNSLQDQSHALLKYWLERDGKHATDTNLVECLTKINRMDIVHLME [I33T], for which the abundance fitness was -0.022 ± 0.096.

Turning to ERLAYIADHLGFSWTELARELDFTEEQIHQIRFENPNSLQDQSHALLKYWLERDGKHATDTNLVECLTKINRMDIVHLME [I33F], the abundance fitness was -0.019 ± 0.18.

Consider ERLAYIADHLGFSWTELARELDFTEEQIHQIRIENPNSLQDQSHALLKYWLERDGYHATDTNLVECLTKINRMDIVHLME [K56Y], for which the abundance fitness is -0.13 ± 0.12.

Take ERLAYIADHLGFSWTELARELDFTEEQIHQIRIENPNSLQDQSHALLKYWLERDGKHATDTNLVECLTKINRLDIVHLME [M73L]: the abundance fitness stood at 0.04 ± 0.41.

In the case of ERLAYIADHLGFSWTELARELDFTEEQIHGIRIENPNSLQDQSHALLKYWLERDGKHATDTNLVECLTKINRMDIVHLME [Q30G], the abundance fitness is -0.079 ± 0.065.

ERLAYIADHLGFSWTELARELDFTEEQIHDIRIENPNSLQDQSHALLKYWLERDGKHATDTNLVECLTKINRMDIVHLME [Q30D]: the abundance fitness was -0.183 ± 0.15.

In the case of ERLAYIADHLGFSWTELARELDFTEESIHQIRIENPNSLQDQSHALLKYWLERDGKHATDTNLVECLTKINRMDIVHLME [Q27S], the abundance fitness came out at 0.006 ± 0.071.

For the variant ERLAYIADHLGFSWTELARELDFTEEEIHQIRIENPNSLQDQSHALLKYWLERDGKHATDTNLVECLTKINRMDIVHLME [Q27E], the abundance fitness is 0.007 ± 0.071.

With ERLAYIADHLGFSWTELARELDFTEEMIHQIRIENPNSLQDQSHALLKYWLERDGKHATDTNLVECLTKINRMDIVHLME [Q27M], the abundance fitness was -0.006 ± 0.1.

For the variant ERLAYIADHLGFSWTELARECDFTEEQIHQIRIENPNSLQDQSHALLKYWLERDGKHATDTNLVECLTKINRMDIVHLME [L21C], the abundance fitness was -0.488 ± 0.23.

Take ERLAYIALHLGFSWTELARELDFTEEQIHQIRIENPNSLQDQSHALLKYWLERDGKHATDTNLVECLTKINRMDIVHLME [D8L]: the abundance fitness came out at 0.052 ± 0.09.

As to ERLAYIADHLGFSWTELARELDFTEEQIHQIRIENPNSLQDQSHALLKYDLERDGKHATDTNLVECLTKINRMDIVHLME [W50D], the abundance fitness was -0.598 ± 0.19.

With ERLAYIADHLGFSWTELARELDFTEEQIHQIRIENPNSLQDQSHALLKYALERDGKHATDTNLVECLTKINRMDIVHLME [W50A], the abundance fitness was found to be 0.003 ± 0.047.

Turning to ERLAYIADHLGFSWTELARELDFTEEQIHQIRIENPNSLQDQSHALLKYWLERDGKHATDTNLVECLTKINRMKIVHLME [D74K], the abundance fitness is -0.348 ± 0.19.

On to ERLAYIADHLGFSWTELARELDFTEEQIHQIRIENPNSLQDQSHALLKYWLERDGKHATDTNLVERLTKINRMDIVHLME [C66R], for which the abundance fitness was found to be 0.001 ± 0.045.

Regarding ERLAYIADHLGFSWTELARELDFTEEQIHQIRIENPNSLQDQSHALLKYWLERDGKHATDTNLVEILTKINRMDIVHLME [C66I], the abundance fitness was -0.143 ± 0.082.

Turning to ERLAYIADHLGFSWTELARELDFTEEQIHQIRIENPNSLQDQSPALLKYWLERDGKHATDTNLVECLTKINRMDIVHLME [H44P], the abundance fitness was -0.992 ± 0.46.

As to ERLAYIADHLGFSWTELARELDFTEEQIHQIRIENPNSLQDQSRALLKYWLERDGKHATDTNLVECLTKINRMDIVHLME [H44R], the abundance fitness was -0.226 ± 0.12.

Source of the values: the Human Domainome abundance scans (Beltran et al. 2025).
